Reference: the supplement of paper PMC12764529
± gives the half width of the 95% confidence interval.

What was measured:
[1] = folding stability dG unfold from trypsin proteolysis; higher = more stable
In short: (§1)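 Bayesian fitting of sequencing counts gave K50 for each design. Unfolding free energy followed by setting this against a sequence-predicted unfolded-state K50 and a shared folded-state K50, either per protease or with trypsin and chymotrypsin combined. The designs, under 80 residues and lacking cysteine, were digested in a PA-tagged cDNA display format at 11 threefold-diluted protease concentrations and without protease, and only those with AlphaFold2 dimer inter-PAE above 15 were kept.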

[2] = folding stability dG unfold from chymotrypsin proteolysis; higher = more stable
In short: as §1

[3] = folding stability dG unfold (combined trypsin and chymotrypsin); higher = more stable
In short: as §1

Row | Sequence | folding stability dG unfold [1] [kcal/mol] | folding stability dG unfold [2] [kcal/mol] | folding stability dG unfold [3] [kcal/mol]
1 | SKEKVKVEIKLTVTKVFPPEELEKDPKTGKYRNKDTGKWFEPPKVVVKELTLTIEMSKEEVEKLLKELLKSA [r9_165_TrROS_Hall] | 1.52 ± 0.059 | 2.63 ± 0.048 | 2.29 ± 0.095
2 | SKETETVEMEITITVNGKKVKIKATFTRNKDGSITMTITYEDGKKIEITFTNGKIVIVDKKTKKIIAEIPSA [r9_970_TrROS_Hall] | 2.54 ± 0.19 | 4.41 ± 0.15 | 4.14 ± 0.25
3 | SKFKIDEIKYEPNKPYTIKVKLPDGTTIEIKYDPNKPNEVKIILTHPDGSKKEFTLPYNYPININLKVNPSA [r9_875_TrMRF] | 1.59 ± 0.031 | 2.05 ± 0.081 | 1.95 ± 0.083
4 | SKGKKVLVIPATLPEAEEIAKALGLPPSLFPSSKKLVDALKEAFPENVVVVVAPAKPVTEEELKALAEGKSA [r9_74_TrMRF] | 0.19 ± 0.037 | 0.93 ± 0.039 | 0.678 ± 0.081
5 | SKIEIDEFPWERNPDDGYATIQIKIKVRDPDKKKKDIPHEFPPGSSPDQFWDQIENRAQNNGIKDVEISWSA [r9_1203_TrROS] | 0.0973 ± 0.058 | -0.0831 ± 0.11 | 0.032 ± 0.13
6 | SKIKIEEVPEGEEVEIEIPETKKTITIVKKDDYLIIKVKDKKTGEEKEIVIKVPPENIEEVLKKIEELLKSA [r9_982_TrROS_Hall] | 2.01 ± 0.1 | 2.34 ± 0.25 | 2.11 ± 0.4
7 | SKIRIEVPGETIEITVPPGATVEFDEETGEITITLPDGSKRTIRLPPNAKIEVVDGEIRITIRLPPPPEPSA [r9_653_TrROS_Hall] | 3.15 ± 0.12 | 2.78 ± 0.2 | 2.93 ± 0.21
8 | SKKIIIKITITDPKNKKKIKITEIIFDKKTKKIIIKIEVENVKNKEKLKSKEDVLEAIKKLLEKLGFKPISA [r9_258_TrROS_Hall] | 1.81 ± 0.23 | 2.47 ± 0.35 | 2.25 ± 0.47
9 | SKKKIEIEVIDLKTGKTETIEADTLEEALEEIKKNAPPGSTVIVRIKLPDGSVLEITLEIKPEKVTEKEKSA [r9_482_TrROS_Hall] | 0.956 ± 0.074 | 1.37 ± 0.087 | 1.21 ± 0.22
10 | SKKKKEKKKKEKEKKEKKKVIVLSEEELLEKVRELAKKGKKVKIVVKTPDKELAERLAKEAEELGVEVEVSA [r9_468_TrROS_Hall] | 1.45 ± 0.059 | 1.32 ± 0.027 | 1.31 ± 0.13
11 | SKKKKKKKKKKPKTVIIEIDVKEMSEEEIREILKKLPKNVKRVIIIAKSEEEKEKLKELLKEAGYEVEIVSA [r9_919_TrROS_Hall] | 1.96 ± 0.18 | 1.94 ± 0.069 | 1.76 ± 0.25
12 | SKKKKKKKKKKVIIKIKKDGKEIYIEMTVEEIKELLKKGVKKIEIYSPSEEEKEKIKKLLEEEGVEVEEVSA [r9_810_TrROS_Hall] | 2 ± 0.1 | 1.71 ± 0.07 | 1.78 ± 0.18
13 | SKKKKKKTIKIKITIKVEKEVKIRIIYNGKEKEITIKPGETKTIEITFPAGKVIIEIYKDGKPIKKIEIKSA [r9_411_TrROS_Hall] | 2.94 ± 0.092 | 3 ± 0.051 | 2.95 ± 0.1
14 | SKKKKPPKKTVTVVVKVKPGEKITLTLKNKDGKEIAKVEFTKLPEDEPLYIATVTLKDGKLTIKVTKLKPSA [r9_238_TrROS_Hall] | 2.1 ± 0.36 | 2.53 ± 0.13 | 2.66 ± 0.34
15 | SKKKKTIVIELTKDELKELLKKLKVEEGDEVEIFVRNKDGSIYKLTIKNGKITKIEPFKGVPNKVVIVIKSA [r9_849_TrROS_Hall] | 1.84 ± 0.067 | 3.49 ± 0.068 | 3.07 ± 0.3
16 | SKKKVTININITPGDPEQMEENVRWAIKEAAENDPDKEVTITIHFPPGHPEWMRWIKELFTKKGIPITIHSA [r9_1202_TrROS] | 2.88 ± 0.042 | 3.3 ± 0.037 | 3.16 ± 0.059
17 | SKKTVYRIVIELENGEKLEIEVPLGSEVKIEKKEDGTITITVNGKKIEIKLKPGEKAKIVKIEKLPEEEESA [r9_773_TrROS_Hall] | 2.1 ± 0.13 | 2.48 ± 0.064 | 2.52 ± 0.23
18 | SKKVKEITIEGAPPGAKVTITVEEKGDKLIVRVEVERNGKTETFEVEMTLDELKALLDAGYTIRITEVIPSA [r9_1021_TrROS_Hall] | 2.04 ± 0.15 | 2.12 ± 0.086 | 1.99 ± 0.35

Row | Sequence | folding stability dG unfold [1] [kcal/mol] | folding stability dG unfold [2] [kcal/mol] | folding stability dG unfold [3] [kcal/mol]
19 | SKKVTLPIRFPWNGWEIEITAEELAEKKGLDPEDLTIHVVMPGPGWMYTIKIDPDGIEIEPIGPVPPNDMSA [r9_819_TrROS] | 1.45 ± 0.029 | 2.951 ± 0.026 | 2.54 ± 0.074
20 | SKKVVFVTYPKTSVKEIVEKLKENPNTEFVFLMPSSVGPEFYEKLKKALKEANIPKEQKVLFLPVEENSLSA [r9_670_TrMRF] | 2.92 ± 0.13 | 3.106 ± 0.015 | 3.04 ± 0.077
21 | SKKYFLKIEIEIEVELRPLPDEPGYVVLRARIKIKITLVKVDPETGEIVEEKEFEIEIEIELVFPPGVKPSA [r9_1234_TrROS_Hall] | 4.35 ± 0.58 | 6.38 ± 0.71 | > 6
22 | SKLKIEDIKWNPNYPGMYEFKIKLPDKPATIQIPHDPNNGRFMMEIWYPDKPVTVQFDSWDDALAFIKELSA [r9_366_TrROS] | 1.6 ± 0.046 | 1.35 ± 0.16 | 1.52 ± 0.11
23 | SKMKVIKTFENKETGEKIVIVKDEKTKKYYIFIYNKDGELVEKIEVEPGETITLPNGKTITIKEGDVIEFSA [r9_340_TrROS_Hall] | 4.24 ± 0.13 | 4.24 ± 0.071 | 4.35 ± 0.087
24 | SKNKVEITIPMPYSQAREIARQLGLPPEKFKDPKDLVDWLKDLFPKDVKIRIQPMKPVTEEERRARQNGKSA [r9_74_TrROS] | 0.817 ± 0.12 | 1.34 ± 0.076 | 1.12 ± 0.085
25 | SKNYPIRISIFQRNPNGNPQTVTYPIPVDAAKELKDAGFEVKDVDPDSGMIMVKFPMPNYPVYIMISIEDSA [r9_5_TrROS] | 2.75 ± 0.093 | 3.12 ± 0.056 | 2.98 ± 0.13
26 | SKPDPVKIEIEQERNPNGQPQHTIKIQDKGKDRKFPIHNMSIDEFDPDDPYIKIRSPGNGQSHTIPPDDLSA [r9_1186_TrROS] | -0.0606 ± 0.073 | 1.22 ± 0.022 | 0.832 ± 0.098
27 | SKPILKIKINIPVLKDKNGKEIIPSPNDVLAALEKLGIPVDKAEITKIGKNTIPILILVDLVDGKAYVKDSA [r9_225_TrMRF] | 1.51 ± 0.059 | 0.539 ± 0.054 | 1.13 ± 0.1
28 | SKPPSDPGSIEFSFPDSSNVTVTIPVPLPPNTTVSISLSDGKSYTVPGGTTFTFTLPPGKPFTVTVNIRSSA [r9_79_JUSTAS] | 3.75 ± 0.2 | 4.47 ± 0.061 | 4.23 ± 0.2
29 | SKPTLTLKLTVVVKDENGEKKTVTLTIPVSEEELEKLLKEIAKELGLKDVKVVKIEKNKNGFIKITVEVKSA [r9_1101_TrROS_Hall] | 2.16 ± 0.12 | 2.36 ± 0.033 | 2.36 ± 0.21
30 | SKTFYAGLDVYFDPDSDELTALVGVRSEDGSYEPSLEEVAREVAAKLRELGYEVEVEPLPGYARIRVKPPSA [r9_510_TrMRF] | 1.67 ± 0.039 | 1.72 ± 0.069 | 1.71 ± 0.057
31 | SKTIIIEVKEEKLEEIAEELAKKLEEETGYKIKKVEIILPDGTVVRIEVDAKTKKIKIEVYKLDKNGKLLSA [r9_173_TrROS_Hall] | 1.15 ± 0.037 | 2.24 ± 0.096 | 1.97 ± 0.1
32 | SKTIMFQFDSIEEIKDFIKEAIDDGDPDQKIRIEWYPPGGRRQEHEIESPEDIIDFLENGPYWIRVEIEPSA [r9_589_TrROS] | 1.68 ± 0.052 | 2.16 ± 0.047 | 2.05 ± 0.12
33 | SKVIYVPPGATVEEILAAIKANKGKTVTIVMSREELERLKKALEEAGYEVEEVKVFEEEPYVVVKIKVKPSA [r9_1138_TrROS_Hall] | 4 ± 0.17 | 3.72 ± 0.12 | 3.84 ± 0.18
34 | SLGPLVELAELFPDFEPLGVEEEPLEDGGRLLRVIGRIPEIGAYLLIEVRLPPGGGIESIRAEWVPEDELSA [r9_274_TrMRF] | 3.4 ± 0.12 | 4.28 ± 0.071 | 3.95 ± 0.11
35 | SLIEALRAALEAGADEVTLRIVMPEEEAEELEKALEDLGFEIVSRERVEVDGRRYLVMEIRLRAPPPEEPSA [r9_498_TrROS_Hall] | 3.92 ± 0.095 | 4.93 ± 0.084 | 4.59 ± 0.1
